# From publication PMC11240982 (2024)
# B1: SHIV_(1157ipd3N4) V3 peptide (305KSISIGPGQAI317) (peptide)
# peptide: KSISIGPGQAI
# B2: JT18 (antibody, V domains shown)
# VH: EVQLVQSGAEVKRPGESLRISCKTSGYDFTDYWINWVRQMPGKGLEWVGMVYPSDSETAYSPSFRGRVTISADTSISTSYLQWTSLEASDTATYYCARPVSGTFALDVWGRGVLVAVSS
# VL: QSVLTQPPSMSGAPGQRVTMSCTGGNSNIGANLYVQWYQQVPGTAPRLLIYEDNQRPSGVSDRFSGSRSGSSASLTITGLQSEDEADYYCQSYDNSLSTVLFGGGTRLTVL
# How the values were obtained:
# Experiment in all cases: BLI
# J038 = target: J038
# 447-52D = target: 447-52D
# [1] = target: B1
Binder,Kd (J038) [nM],Kd (447-52D) [nM],Kd [1] [nM]
B1,1650,55.6,–
B2,–,–,55.3
